Laboratory results published in patent US20100120678A1 (University of California, published 2010).

Target: His-tagged wildtype EGFR kinase domain (human, UniProt P00533 696-1022, limits assumed)
Experiment: cell-based or functional assay

B1: 25-mer peptide corresponding to residues 340-364 in Mig-6 (peptide)
peptide: SYLNGVMPPTQSFAPDPKYVSSKAL
inhibition of activated EGFR kinase (IC50): ~100 µM
